Results taken from the supplement of paper PMC9170038.

Test system: MS2 coat protein
Assay: apparent KD of MS2 coat protein; designed switch direction (-1 OFF switch, 1 ON switch): -1; higher = weaker reporter binding
Method in brief: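 Three titration conditions were used: no input, 200 uM small-molecule ligand, and an oligonucleotide input. In each, SNAP-549-labelled MS2 coat protein was raised from 0.7 or 1.5 nM, doubling, to 3 µM over designed RNA switches transcribed on Illumina chips by stalled E. coli RNA polymerase. Curve fits of normalised cluster fluorescence gave values whose per-design median over clusters is the apparent KD.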

[1] = Eterna round: R95, input ligand: FMN 200 uM
[2] = Eterna round: R95, input ligand: microRNA oligo, concentration not stated
[3] = Eterna round: R95, input ligand: none
[4] = input ligand: microRNA oligo, concentration not stated

| Sequence | apparent KD of MS2 coat protein [1] [nM] | apparent KD of MS2 coat protein [2] [nM] | apparent KD of MS2 coat protein [3] [nM] | apparent KD of MS2 coat protein (input ligand: FMN 200 uM) [nM] | apparent KD of MS2 coat protein (input ligand: none) [nM] | apparent KD of MS2 coat protein [4] [nM] |
| --- | --- | --- | --- | --- | --- | --- |
| UGGUAACAUGAGGAUCACCCAUGUCAGGAUAUCAGUAAGAAUAGAGGAGAGUAGAAGAUGAGAAGGGACUAUAU [Excluse me! 8 - Jieux - Exclusion 1] (puzzle: Exclusion 1) | 20.5 | 33.4 | 30.8 | – | – | – |
| UGUAACCUAGGAUAUACAUGAGGAUCACCCAUGUAAUGUAGUAUAGUGUGUGUGAGGUGUAGAAGGUGGGAUGU (Eterna round: R97, puzzle: Exclusion 3) | – | – | – | 60.4 | 60.2 | – |
| UGUACUAUGCGAGCUGACUUGCGUAGUGCAGCAGGUGAAACAUGAGGAUCACCCAUGUCCUCAUUUGCUCGUCUUAU [SL-sv3-2.02 JL mod] (Eterna round: R96, puzzle: Sensor v3, turn-off variant 2) | – | – | – | 45.2 | 43.1 | 399 |
| UGUACUAUGCGAGCUGACUUGCGUAGUGCAGCAGGUGAAACAUGAGGAUCACCCAUGUCCUCAUUUGCUCGUCUUAU [SL-sv3-2.02 JL mod] (puzzle: Sensor v3, turn-off variant 2) | 47.7 | 599 | 41.6 | – | – | – |
| UGUAUAGGAGUGAGGAUAUGGAAACUGGAAAAGGACCAGAAGGCACAUGAGGAUCACCCAUGUGGUUCUCAAGA [Eternabot (Original) Solution 50] (Eterna round: R97, puzzle: Brourd's mod of Exclusion 4) | – | – | – | 1210 | 373 | – |
| UGUCCAAUACAGGAUAUUCUCGCGUAGUAGCAAGGAGAAGGGUAGACAUGAGGAUCACCCAUGUGAUUCAUCUG [Eternabot (L2) Solution 68] (Eterna round: R97, puzzle: Exclusion 6) | – | – | – | 438 | 575 | – |
| UGUCCACAUUCCGAUACGGGACAUGAGGAUCACCCAUGUCCACAGGAUAUCGUCUUACGAGAGAUCGAGAAGGGUGGCGUGCGC [Eternabot solution 22] (Eterna round: R96, puzzle: Exclusion NG 3) | – | – | – | 13.1 | 14.1 | 9.72 |
| UGUCUUCAUAUCACAUGAGGAUCACCCAUGUUAUUCAUCUCGUAGGAUAUCGAGGUUUAUUAUUUCGAGAAGGACGUAUUGUUU [JR_ExcNG3_Sub076] (Eterna round: R96, puzzle: Exclusion NG 3) | – | – | – | 199 | 148 | 112 |
| UGUCUUGCAGGAUAUCAUGUGAUAUACAUGAGGAUCACCCAUGUUAGCCUCAUGAGCGUCUGAGAAGGGUAAGACG [Eternabot (L2) Solution 22] (Eterna round: R97, puzzle: Exclusion 5) | – | – | – | 131 | 40.1 | – |
| UGUGGACAUGAGGAUCACCCAUGUCAGCCGUGUCCACCGAGAGAGGAUAUUGGUCAACCAGGGACUAAGAAGGCUCAGAGCUGG [Eternabot solution 47] (Eterna round: R96, puzzle: Exclusion NG 3) | – | – | – | 30.3 | 46.4 | 37.4 |
| UGUUGUCGCGCAGGAUAUGAGGAUCACCCAUAUAAAGGAUAUGAAAAGAAGGUUCUGAGGAUUACCCAGAAGGGCGGGACAACU [pwkr exNG2 2xF5 2xFMN.16] (Eterna round: R96, puzzle: Exclusion NG 2) | – | – | – | 250 | 52.3 | 40.3 |
| UGUUGUCGCGCAGGAUAUGAGGAUCACCCAUAUAGAGGAUAUGAAAAGAAGGCUCUGAGGAUUACCCAGAAGGGCGGGACAACU [pwkr exNG2 2xF5 2xFMN.21] (Eterna round: R96, puzzle: Exclusion NG 2) | – | – | – | 1660 | 179 | 152 |
| UGUUGUCGCGUAGGAUAUUGUCAACAGGCAGUAGGAUAUGCGAAAGCAGAAGGACCGCCAACAGGCGAGAAGGACGGGACAACU [pwkr exNG2 2xF7 2xFMN.6] (Eterna round: R96, puzzle: Exclusion NG 2) | – | – | – | 44.3 | 138 | 35.6 |
| UGUUGUUACGCAGGAUAUGCAUGAGGAUCACCCAUGCAAUUAGAGUUAACAUGAGGAUCACCCAUGUAGAAGGGCGGGUUAACA [pwkr exNG2 2xF5 1xFMN.4] (Eterna round: R96, puzzle: Exclusion NG 2) | – | – | – | 82.2 | 57.6 | 45.8 |
| UGUUGUUACGUAGGAUAUCCACCAACAGGUGGAAGGAUAUGGAAACAGAAGGUUCGCCAACAGGCGGAGAAGGACGUGUUAACU [pwkr exNG2 2xF7 2xFMN.23] (Eterna round: R96, puzzle: Exclusion NG 2) | – | – | – | 2.79 | 288 | 3780 |
| UUAAAUCAUGUAGGAUAUGCGUGGAGAAACUAUGCAGAAGGACAUGAGGAUCACCCAUGUGCUUCCGUCUGAGAACAGACGGUA [Mat - Exclusion NG 1 - Mod of JL - D14] (Eterna round: R96, puzzle: Exclusion NG 1) | – | – | – | 285 | 57.9 | 43.2 |
| UUAAAUCAUGUAGGAUAUGCGUGGCGAAGCUAUGCAGAAGGACAUGAGGAUCACCCAUGUGCUUCCGUCUGAGUACAGACGGUA [Mat - Exclusion NG 1 - Mod of JL - D11] (Eterna round: R96, puzzle: Exclusion NG 1) | – | – | – | 221 | 101 | 106 |
| UUAAGGGACUGAGGAUAUACAUGAAUUAUUUUUGUAGAAGGCAGAUUGUUAGUUUAUUCACUAUACAUGAGGAUCACCCAUGUU [JR_ExcNG1_Sub020] (Eterna round: R96, puzzle: Exclusion NG 1) | – | – | – | – | – | 18.3 |
| UUAAUAUAUCAGGAUAUGAUUAUAUGUGUUAAAUCAGAAGGGAUAACAUGAGGAUCACCCAUGUUGUGGAGUGA [JR_Ex6_Sub033] (Eterna round: R97, puzzle: Exclusion 6) | – | – | – | 303 | 92.8 | – |
| UUAAUAUAUGUAGGAUAUGCGUGGCGAAGCUAUGCAGAAGGACAUGAGGAUCACCCAUGUUCCAGCGUCCGCGUACGGAUGCAA [JL Eng1 1.21 mod 11] (Eterna round: R96, puzzle: Exclusion NG 1) | – | – | – | 16 | 13.3 | 12.3 |
| UUAAUUAAUUAAGCGCAAGAUCACAUGAGGAUCACCCAUGUAUAGGAUAUCAGCUCGUGUAGAGCUGAGAAGGAUACAUAGCGC [ExNG3/2-A3] (Eterna round: R96, puzzle: Exclusion NG 3) | – | – | – | 1030 | 143 | 184 |
| UUACCUAGUGUUAGGAUAUGCGACGGGUGACCGUUGCAGAAGGAACAUGAGGAUCACCCAUGUUUAAUAAAAUC [JL-BMX4-4.45 ViennaUCT mod] (Eterna round: R97, puzzle: Brourd's mod of Exclusion 4) | – | – | – | 53.1 | 12.6 | – |
| UUACUCCUCGCUUGGUCACACAUGAGGAUCACCCAUGUGGGAUGCCAUGGCGUCUCAUCAAGCUUCUUUUGCUCGUG [Eternabot (Original) Solution 26] (Eterna round: R97, puzzle: Sensor, turn-off variant 1) | – | – | – | 20.9 | 23.8 | – |
| UUAGUAUUGCAAGGAUAUGUUUAUGUUUAUUUUCCUCUUACAUGAGGAUCACCCAUGUUUAACUUACAGAAGGUGCUAUGAUUU [JR_ExcNG2_Sub032] (Eterna round: R96, puzzle: Exclusion NG 2) | – | – | – | 1120 | 1030 | 477 |
| UUAUACCUAGGAUAUACCUUUGGGUGUAGCCUAAUGUCUGGACAUGAGGAUCACCCAUGUAGAAGGAGGCGAAA [EX2 A.7] (Eterna round: R97, puzzle: Exclusion 2) | – | – | – | 244 | 78 | – |
| UUAUAUAAUGUGAGGAUAUGCUGGUCGAGAGAUCAGCAGAAGGCACAUGAGGAUCACCCAUGUAGUAAAUUUUA [Mat - Exclusion 4 - JL Mod - D14] (puzzle: Brourd's mod of Exclusion 4) | – | 19.8 | – | – | – | – |
| UUAUAUAGUGUGAGGAUAUGCUGGUCCUUGGAUCAGCAGAAGGCACAUGAGGAUCACCCAUGUAGUUAAUUAUA [Mat - Exclusion 4 - JL Mod - D15] (puzzle: Brourd's mod of Exclusion 4) | – | 30.1 | – | – | – | – |
| UUAUCUACUGAGGAUAUUAUAUUACCCGACUGAUAAGAAGGCAGUACAUGAGGAUCACCCAUGUGGGUAGCCAU [Polaris11] (Eterna round: R97, puzzle: Exclusion 6) | – | – | – | 23.2 | 20.8 | – |
